Test results reported in the supplement of paper PMC10724198.
± gives the standard deviation of the averaged measurements.
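Further: PSI is a weighted mean of sequencing reads over stability bins, variants kept only with over 10 reads, mCherry proximal and sfGFP distal, peptide attached via GGGS linker.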

These sequences were tested on Saccharomyces cerevisiae (assay: protein stability index of tFT-peptide fusion (C-terminal peptide) (PSI (0-1 scale)); higher = more stable (slower turnover)). Settings: genetic background: wild type; temperature: 30 C.
PQRPPPALACPP gave a protein stability index of 0.703 ± 0.083. PQSKWLTTFRQK was tested, and the protein stability index was 0.713 ± 0.095. PQSSGVSPIPPP showed a protein stability index of 0.77 ± 0.078. For PQSSLPPLSTSS, the protein stability index was 0.686 ± 0.011. Work on PQTSRAPFPPPP yielded a protein stability index of 0.7125 ± 0.0058. With PQVGWFCNRLEV the protein stability index was 0.836 ± 0.17. Work on PQWFPNYLRLLL yielded a protein stability index of 0.517 ± 0.041. With PRAGPPPPPPSP the protein stability index was 0.734 ± 0.028. For PRAPRPHPLTNF, the protein stability index was 0.673 ± 0.051. PRASDPPPSPYP gave a protein stability index of 0.766 ± 0.057. For PRCPSTPQPEHH, the protein stability index was 0.739 ± 0.027. Sequence PRELFGFNLAQP has a protein stability index of 0.692 ± 0.011. PRGLGPPGWGRR was tested, and the protein stability index was 0.697 ± 0.022. PRGLLLPLPCHS was tested, and the protein stability index was 0.574 ± 0.00058. With PRLDPTSPPPHA the protein stability index was 0.675 ± 0.0094. Work on PRLFLFRSSFPP yielded a protein stability index of 0.681 ± 0.048. Work on PRLIESYRPITS yielded a protein stability index of 0.715 ± 0.09. Sequence PRLPPPHRRPAP has a protein stability index of 0.759 ± 0.022. Work on PRLRRVCGQSLV yielded a protein stability index of 0.6664 ± 0.0066. For PRLSLPSAPPRP, the protein stability index was 0.732 ± 0.08. PRPGQPFSRFRF gave a protein stability index of 0.6724 ± 0.0054. For PRPGSRCPIKGR, the protein stability index was 0.692 ± 0.024. Sequence PRPLFVHTSSTF has a protein stability index of 0.7105 ± 0.0024. For PRPLLLLPPATP, the protein stability index was 0.703 ± 0.029. With PRPLLVPPLFKS the protein stability index was 0.768 ± 0.031. For PRPLPVCTDVHD, the protein stability index was 0.642 ± 0.019. For PRPPLPPASPPL, the protein stability index was 0.595 ± 0.044. For PRPPLPSLHLSP, the protein stability index was 0.679 ± 0.024. Work on PRPPPATRPGPP yielded a protein stability index of 0.688 ± 0.017. PRPPPSFPPDPS showed a protein stability index of 0.669 ± 0.049. PRPPSSSPHPHP showed a protein stability index of 0.727 ± 0.095. Sequence PRPTPPHPPITR has a protein stability index of 0.824 ± 0.027. With PRPTPPHSPLLP the protein stability index was 0.586 ± 0.02. For PRPVRAVEMLTL, the protein stability index was 0.715 ± 0.029. For PRSLLSPPGSVD, the protein stability index was 0.704 ± 0.026. PRSPTPPPSYSP gave a protein stability index of 0.715 ± 0.11. Sequence PRVCSCFLPTRP has a protein stability index of 0.711 ± 0.01. Work on PRVCSLLPSGSF yielded a protein stability index of 0.711 ± 0.014. PRYRTPPLPPPG gave a protein stability index of 0.55 ± 0.012. PSADRQSMRCRR gave a protein stability index of 0.631 ± 0.007. PSALPLVPSPLP showed a protein stability index of 0.706 ± 0.033. In the case of PSAPFLPSPPPV, the protein stability index is reported as 0.661 ± 0.021. PSAWRCFSTGKV showed a protein stability index of 0.844 ± 0.018. For PSDLPPPTPLLA, the protein stability index was 0.63 ± 0.022. PSDSRSTPPTPD was tested, and the protein stability index was 0.698 ± 0.033. PSFFFFAAPLPL gave a protein stability index of 0.623 ± 0.028. PSFLPLWFSRLR showed a protein stability index of 0.731 ± 0.093. Sequence PSFVIQRCPMIL has a protein stability index of 0.606 ± 0.076. With PSFVRTVPSPCP the protein stability index was 0.658 ± 0.011. PSGCIPCNVGVS was tested, and the protein stability index was 0.705 ± 0.099. PSGSFPPCLGSP gave a protein stability index of 0.653 ± 0.018. For PSGVKILFELKP, the protein stability index was 0.645 ± 0.03. Work on PSHPSPPPPAPP yielded a protein stability index of 0.692 ± 0.041. Work on PSHRPWPPTRPP yielded a protein stability index of 0.677 ± 0.033. Sequence PSIKRSVKPFSP has a protein stability index of 0.857 ± 0.2. In the case of PSIPSNPPTPPR, the protein stability index is reported as 0.72 ± 0.033. For PSLARWLTLGYM, the protein stability index was 0.63 ± 0.013. Work on PSLNPRVSFVNL yielded a protein stability index of 0.685 ± 0.0073. Work on PSLSPSLLRFNL yielded a protein stability index of 0.66 ± 0.015. PSLSPSPRITSS gave a protein stability index of 0.65 ± 0.077. PSMLFPRTLSPL was tested, and the protein stability index was 0.6963 ± 0.0056. With PSPALPANQSFY the protein stability index was 0.665 ± 0.019. Sequence PSPLLPPPLPPS has a protein stability index of 0.678 ± 0.046. For PSPLPPPPLPLS, the protein stability index was 0.5739 ± 0.0048. Sequence PSPLPPVPPPPP has a protein stability index of 0.639 ± 0.095. With PSPPAPPPSPLP the protein stability index was 0.823 ± 0.15. PSPPPAPAPLLA gave a protein stability index of 0.667 ± 0.032. Sequence PSPPPPPPPGSF has a protein stability index of 0.677 ± 0.06. With PSPPPPPSPSPP the protein stability index was 0.626 ± 0.014. Work on PSPPPSQSLPPP yielded a protein stability index of 0.717 ± 0.043. PSPPPVSPVVPP showed a protein stability index of 0.672 ± 0.036. For PSPPTSLPPTDA, the protein stability index was 0.706 ± 0.029. PSPPTYPSFPSR was tested, and the protein stability index was 0.724 ± 0.041. Work on PSPSLYPPASPP yielded a protein stability index of 0.654 ± 0.046. PSPSVVPASSPP was tested, and the protein stability index was 0.669 ± 0.03. For PSPVPPSPPPSP, the protein stability index was 0.512 ± 0.083. With PSPVPSLPPFLP the protein stability index was 0.745 ± 0.13. With PSRLPSPPPPPP the protein stability index was 0.721 ± 0.073. PSRLSKTLLMGW gave a protein stability index of 0.676 ± 0.07. Work on PSRPPPTPPLPP yielded a protein stability index of 0.629 ± 0.14. In the case of PSRSFLPTHCSL, the protein stability index is reported as 0.666 ± 0.017. With PSRYHLFLPSPA the protein stability index was 0.73 ± 0.055. PSSFIRFLLCCF showed a protein stability index of 0.644 ± 0.04. PSSPPPPPLSPL was tested, and the protein stability index was 0.664 ± 0.017. In the case of PSSPPTPLPPRS, the protein stability index is reported as 0.663 ± 0.077. PSSTSPPPPPPP showed a protein stability index of 0.695 ± 0.025. PSSWPPPPPPLP showed a protein stability index of 0.614 ± 0.022. In the case of PSSYFFPPHFLL, the protein stability index is reported as 0.665 ± 0.1. PSTLKQVMNLGA showed a protein stability index of 0.666 ± 0.18. PSTPPPPPGDFL showed a protein stability index of 0.709 ± 0.037. PSTSHLALSWSV gave a protein stability index of 0.703 ± 0.065. For PSVAPFPLAPFS, the protein stability index was 0.71 ± 0.066. For PSVLGCIVPLIW, the protein stability index was 0.7197 ± 0.0043. In the case of PSVLLAPTRRHP, the protein stability index is reported as 0.678 ± 0.0016. In the case of PSVPLAGFVCRA, the protein stability index is reported as 0.587 ± 0.11. PSVPPRVCSFSI was tested, and the protein stability index was 0.735 ± 0.08. PSWEPLPLPAVL was tested, and the protein stability index was 0.707 ± 0.018. Work on PSYKRGGSYPMQ yielded a protein stability index of 0.692 ± 0.049. Work on PSYLALPLSTSP yielded a protein stability index of 0.684 ± 0.024. With PTAPPRLRLSFC the protein stability index was 0.667 ± 0.0089. PTASDPLPPPPN showed a protein stability index of 0.867 ± 0.13. Work on PTATMLFLTRTG yielded a protein stability index of 0.702 ± 0.043. PTHCTPRRRTRR gave a protein stability index of 0.676 ± 0.014. With PTHSRQPPYLSL the protein stability index was 0.684 ± 0.027. PTIGTLPTVGDD was tested, and the protein stability index was 0.656 ± 0.02. PTIPLLPPPLPP was tested, and the protein stability index was 0.622 ± 0.022. PTKRHRKAPGTN was tested, and the protein stability index was 0.629 ± 0.069. PTLTTQPNVPLN showed a protein stability index of 0.723 ± 0.038. PTPPRRPLSFSP gave a protein stability index of 0.653 ± 0.057. With PTQSDSTSTSRI the protein stability index was 0.69 ± 0.016. PTRPPAPGPGRH gave a protein stability index of 0.744 ± 0.045. PTRPPSLPRIPP gave a protein stability index of 0.669 ± 0.028. PTRQTIWPPPAS was tested, and the protein stability index was 0.748 ± 0.026. With PTSACAPACPLL the protein stability index was 0.706 ± 0.032. In the case of PTSLPLPPPSLS, the protein stability index is reported as 0.7333 ± 0.0056. Work on PTSPPPPPPPPP yielded a protein stability index of 0.657 ± 0.084. Work on PVAQSCHAPSPP yielded a protein stability index of 0.62303 ± 0.00018. Sequence PVFGRPFCSSSV has a protein stability index of 0.682 ± 0.061. For PVFLQRVIPRSR, the protein stability index was 0.678 ± 0.096. PVHHLSLPSPLL gave a protein stability index of 0.732 ± 0.037. With PVLPPPAPSPPP the protein stability index was 0.678 ± 0.042. In the case of PVLVLPHARSPF, the protein stability index is reported as 0.695 ± 0.021. PVPASSSRSLLL gave a protein stability index of 0.671 ± 0.0095. PVPPQHPPLKSI gave a protein stability index of 0.705 ± 0.059. PVPRRPLLPLPP was tested, and the protein stability index was 0.663 ± 0.02. Sequence PVPSPLLPSFSL has a protein stability index of 0.715 ± 0.064. Sequence PVSPALTPFPPS has a protein stability index of 0.705 ± 0.043. In the case of PVSSPSSPLPPL, the protein stability index is reported as 0.678 ± 0.054. Sequence PVVKVCRPVFLD has a protein stability index of 0.829 ± 0.13. In the case of PWFIGGSLGESG, the protein stability index is reported as 0.699 ± 0.027. In the case of PWQSSPFTPALT, the protein stability index is reported as 0.649 ± 0.057. For PWTRMHRETRYL, the protein stability index was 0.683 ± 0.02. PWVSGGMGKGDV gave a protein stability index of 0.686 ± 0.0075. For PYAFPPPPPPPP, the protein stability index was 0.64 ± 0.032. Sequence PYFLLLVSIPPS has a protein stability index of 0.525 ± 0.0056. PYHTITPKPLQR gave a protein stability index of 0.677 ± 0.049. Sequence PYLLGPIPGIPR has a protein stability index of 0.666 ± 0.059. PYPPPPRLLVSP was tested, and the protein stability index was 0.7359 ± 0.0056. Work on PYQPSPFRLAAG yielded a protein stability index of 0.67 ± 0.1. For PYRPPPPLALSL, the protein stability index was 0.693 ± 0.015. For PYRWQTRPDAVD, the protein stability index was 0.666 ± 0.014. With PYSCPPGCRSVL the protein stability index was 0.6894 ± 0.0043. Work on PYSGSPRALPRP yielded a protein stability index of 0.716 ± 0.069. PYTHFFSPPFWP gave a protein stability index of 0.766 ± 0.04. Sequence PYTPLLLSTLAP has a protein stability index of 0.6899 ± 0.0016. With PYWYPRASRGAL the protein stability index was 0.699 ± 0.043.
